Experimental data: publication PMC5811025

How the values were obtained:
[1] = biological target: PrxQ:C54S (Corynebacterium glutamicum); assay: mixed-disulfide heterodimer formation on non-reducing SDS-PAGE; 20 μM PrxQ variant and 15 μM Trx (WT or variant) in 30 mM Tris-HCl pH 8.0, 1 mM EDTA, room temperature 15 min, then 50 μM H2O2 for 30 min; 15% non-reducing SDS-PAGE
[2] = biological target: tag-free recombinant native peroxiredoxin Q (PrxQ) from Corynebacterium glutamicum (Corynebacterium glutamicum)

stoichiometry N [1] | Substance | further results
1 | His6-Trx1:C35S (natural protein) | –
1 | His6-Trx2:C33S (natural protein) | –
– | Trx1 WT (wild type) (natural protein) | Km for Trx1 of the peroxidase activity of PrxQ with CHP (NADPH-coupled assay, Trx1/TrxR system, 0-120 μM Trx, 1 μM PrxQ) [2]: 4.41 µM
– | Trx2 WT (wild type) (natural protein) | Km for Trx2 of the peroxidase activity of PrxQ with CHP (NADPH-coupled assay, Trx2/TrxR system, 0-120 μM Trx, 1 μM PrxQ) [2]: 5.43 µM
